Molecular target: TBC1D23 co-precipitated with GFP-tagged LKB1 (Fig. 8a) (UniProt Q9NUY8)
Test: co-immunoprecipitation (GFP beads) from HEK293T cells, densitometry
Conditions: parent: est. 1.0; read off a plot

TBC1D23 co-precipitated with GFP-tagged LKB1 (Fig. 8a), sequence (Q9NUY8 whole entry): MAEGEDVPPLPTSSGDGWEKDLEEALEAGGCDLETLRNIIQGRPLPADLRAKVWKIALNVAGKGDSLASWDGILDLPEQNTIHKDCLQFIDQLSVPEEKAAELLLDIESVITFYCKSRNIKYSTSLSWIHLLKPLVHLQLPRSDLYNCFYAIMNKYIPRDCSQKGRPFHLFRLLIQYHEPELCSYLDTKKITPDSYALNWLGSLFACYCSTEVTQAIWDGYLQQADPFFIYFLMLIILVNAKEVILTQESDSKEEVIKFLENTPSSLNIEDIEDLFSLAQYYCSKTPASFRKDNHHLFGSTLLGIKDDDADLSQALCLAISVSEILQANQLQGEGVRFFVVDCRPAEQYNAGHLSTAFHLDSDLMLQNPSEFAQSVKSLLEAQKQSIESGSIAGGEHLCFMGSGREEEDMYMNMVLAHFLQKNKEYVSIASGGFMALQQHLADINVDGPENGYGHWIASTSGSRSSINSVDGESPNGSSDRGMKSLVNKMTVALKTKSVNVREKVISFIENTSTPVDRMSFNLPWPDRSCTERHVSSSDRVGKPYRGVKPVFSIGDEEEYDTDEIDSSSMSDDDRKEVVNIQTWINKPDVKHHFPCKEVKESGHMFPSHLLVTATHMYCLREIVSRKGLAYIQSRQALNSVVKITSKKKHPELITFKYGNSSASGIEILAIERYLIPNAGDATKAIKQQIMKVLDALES

ratio to parent	Substance
0.82	GFP-LKB1 CRD F354L
0.75	GFP-LKB1 CRD F354A

Reference: publication PMC10899256
